Here are results for one molecule from patent US20090311265A1.

The test concerns the target HA of BPL-inactivated virus preparation of strain A/New Caledonia/20/99 (H1N1) (influenza A virus A/New Caledonia/20/99 (H1N1)). Kind of test: ELISA, coated inactivated virus, IgG 5 µg/ml.

B1: CR6329 (antibody, V domains shown)
VH: EVQLVQSGAEVKKPGSSVKVSCKASGGIFRSNSISWVRQAPGQGLEWMGGIFALFGTTDYAQKFQGRVTITADESSTTVYLELSSLTSEDTAVYYCARGSGYTTRNYFDYWGQGTLVTVSS
VL: EIVLTQSPGTLSLSPGERATLSCRASQSVSSNYLGWYQQKPGQAPRLLIYGASSRASGIPDRFSGGGSGTDFTLTISRLEPEDFAVYYCQQYGSSPLTFGGGTKVEIKR
In turn, B1 yielded an OD 492 nm of 1.04 OD 492 nm.
